# Measurements taken from patent EP2420255A2 (Ecole Polytechnique Federale De Lausanne (EPFL), dated 2012).
# Numbered stars: 1 amine (or outer) side, 2 acyl side, 3 side chain; on linkers, the order of the positions; unused ones are H or OH. Bridge positions count the residues as written; N and C are the ends. TBMB = c1c(C[*:1])cc(C[*:3])cc1C[*:2]
# B1: linear UK18 peptide with serine instead of cysteine in positions 2, 9 and 16 (H-ASSRYEVDSRGRGSASG-NH2) (peptide)
# peptide: H-ASSRYEVDSRGRGSASG-NH2
# notes: Not conjugated to TBMB; M = 1740.0 Da; also called UK18ser
# B2: UK18 bicyclic peptide (chemically synthesized peptide-TBMB conjugate, H-ACSRYEVDCRGRGSACG-NH2 cyclised with tris-(bromomethyl)benzene) (peptide)
# peptide: H-ACSRYEVDCRGRGSACG-NH2
# modifications: linker 2-9-16 via TBMB
# SMILES: CC(C)[C@@H]1NC(=O)[C@H](CCC(=O)O)NC(=O)[C@H](Cc2ccc(O)cc2)NC(=O)[C@H](CCCNC(=N)N)NC(=O)[C@H](CO)NC(=O)[C@@H](NC(=O)[C@H](C)N)CSCc2cc3cc(c2)CSC[C@H](NC(=O)[C@H](CC(=O)O)NC1=O)C(=O)N[C@@H](CCCNC(=N)N)C(=O)NCC(=O)N[C@@H](CCCNC(=N)N)C(=O)NCC(=O)N[C@@H](CO)C(=O)N[C@@H](C)C(=O)N[C@H](C(=O)NCC(N)=O)CSC3
# notes: Synthetic bicyclic peptide, 1903 Da after reaction with TBMB; also called clone 18; TBMB-cyclised UK18 peptide
# Tests used:
# [1] = target: T1, human urokinase-type plasminogen activator (UPA-LMW, from human urine, 33 kDa) (human, UniProt P00749 156-431); experiment: enzyme inhibition of human uPA, residual activity
# [2] = target: T1, human urokinase-type plasminogen …; experiment: enzyme inhibition, Ki
# [3] = target: T2, mouse uPA (MUPA-LMW, recombinantly produced in insect cells, 31 kDa) (mouse, UniProt P06869 157-433, limits assumed); experiment: enzyme inhibition, Ki
# T2 construct: also called murine uPA
# T2 sequence (P06869 157-433 limits assumed): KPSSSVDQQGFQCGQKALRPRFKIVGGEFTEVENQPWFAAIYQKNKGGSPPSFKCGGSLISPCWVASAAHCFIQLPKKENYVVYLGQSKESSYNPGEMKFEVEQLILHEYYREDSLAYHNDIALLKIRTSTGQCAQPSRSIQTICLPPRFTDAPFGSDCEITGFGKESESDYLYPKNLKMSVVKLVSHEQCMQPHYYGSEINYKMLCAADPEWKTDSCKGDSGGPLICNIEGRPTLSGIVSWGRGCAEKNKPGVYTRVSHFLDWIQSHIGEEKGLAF
# [4] = target: T1, human urokinase-type plasminogen …; experiment: cell-based or functional assay
# [5] = target: T2, mouse uPA (MUPA-LMW, recombinantly …); experiment: cell-based or functional assay
# [6] = target: T3, human tPA (HTPA-TC, recombinant, 70 kDa) (human, UniProt P00750 36-562); experiment: cell-based or functional assay
# T3 sequence (P00750 36-562 limits assumed): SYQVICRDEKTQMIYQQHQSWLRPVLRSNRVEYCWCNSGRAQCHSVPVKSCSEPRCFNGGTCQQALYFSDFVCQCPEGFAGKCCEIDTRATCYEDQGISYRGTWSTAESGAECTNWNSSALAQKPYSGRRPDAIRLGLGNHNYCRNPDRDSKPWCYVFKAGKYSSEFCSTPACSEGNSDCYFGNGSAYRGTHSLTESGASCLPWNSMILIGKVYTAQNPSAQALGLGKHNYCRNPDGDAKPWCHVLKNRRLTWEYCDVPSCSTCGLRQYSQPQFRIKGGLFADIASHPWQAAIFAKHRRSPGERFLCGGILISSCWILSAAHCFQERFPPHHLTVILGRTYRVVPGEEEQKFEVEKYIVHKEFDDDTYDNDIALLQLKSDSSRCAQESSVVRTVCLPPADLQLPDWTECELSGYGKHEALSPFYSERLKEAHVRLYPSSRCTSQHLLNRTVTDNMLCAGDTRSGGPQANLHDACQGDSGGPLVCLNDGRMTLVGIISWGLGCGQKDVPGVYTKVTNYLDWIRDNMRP
# [7] = target: T4, mouse tPA (MTPA, recombinantly produced in insect cells, 70 kDa) (mouse, UniProt P11214 33-559, limits assumed); experiment: cell-based or functional assay
# T4 sequence (P11214 33-559 limits assumed): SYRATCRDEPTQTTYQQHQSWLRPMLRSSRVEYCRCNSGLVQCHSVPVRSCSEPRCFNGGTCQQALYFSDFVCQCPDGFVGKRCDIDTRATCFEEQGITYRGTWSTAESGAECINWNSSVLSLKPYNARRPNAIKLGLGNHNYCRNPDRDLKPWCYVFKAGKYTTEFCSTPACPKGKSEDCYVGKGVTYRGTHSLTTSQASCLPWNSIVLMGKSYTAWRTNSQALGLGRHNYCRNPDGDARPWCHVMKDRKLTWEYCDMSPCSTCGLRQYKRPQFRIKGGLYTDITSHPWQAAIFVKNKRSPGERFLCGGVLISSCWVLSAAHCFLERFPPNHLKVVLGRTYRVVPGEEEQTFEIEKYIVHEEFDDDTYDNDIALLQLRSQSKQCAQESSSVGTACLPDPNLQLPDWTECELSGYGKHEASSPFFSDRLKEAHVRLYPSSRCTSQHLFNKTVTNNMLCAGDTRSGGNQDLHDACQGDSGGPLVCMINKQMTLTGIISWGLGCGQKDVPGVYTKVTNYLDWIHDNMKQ
# [8] = target: T5, human plasmin (HPLM, from human plasma, 85 kDa) (human, UniProt P00747 97-810, limits assumed); experiment: cell-based or functional assay
# T5 sequence (P00747 97-810 limits assumed): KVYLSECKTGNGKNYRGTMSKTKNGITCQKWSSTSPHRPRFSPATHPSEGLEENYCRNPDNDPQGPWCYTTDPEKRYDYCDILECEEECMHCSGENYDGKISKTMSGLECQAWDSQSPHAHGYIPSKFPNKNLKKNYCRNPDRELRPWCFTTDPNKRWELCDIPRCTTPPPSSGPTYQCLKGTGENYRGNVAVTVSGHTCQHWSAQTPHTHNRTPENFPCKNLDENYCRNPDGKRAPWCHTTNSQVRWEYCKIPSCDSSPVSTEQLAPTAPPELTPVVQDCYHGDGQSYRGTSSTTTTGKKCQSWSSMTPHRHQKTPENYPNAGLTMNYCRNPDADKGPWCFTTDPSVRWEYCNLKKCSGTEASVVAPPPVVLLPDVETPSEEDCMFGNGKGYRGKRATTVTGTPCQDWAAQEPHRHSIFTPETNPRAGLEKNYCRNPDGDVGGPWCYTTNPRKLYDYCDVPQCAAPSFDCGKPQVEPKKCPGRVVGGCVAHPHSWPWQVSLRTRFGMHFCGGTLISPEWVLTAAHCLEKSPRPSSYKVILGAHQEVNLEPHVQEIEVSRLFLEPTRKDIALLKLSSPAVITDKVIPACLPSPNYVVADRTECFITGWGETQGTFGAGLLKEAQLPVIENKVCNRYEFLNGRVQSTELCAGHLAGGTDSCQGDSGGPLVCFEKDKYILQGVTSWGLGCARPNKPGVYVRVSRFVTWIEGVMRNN
# [9] = target: T6, human trypsin (HTRYP, from human pancreas, 25 kDa) (human, UniProt P07477 24-247); experiment: cell-based or functional assay
# [10] = target: T7, human plasma kallikrein (IHPKA, from human plasma, 86 kDa) (human, UniProt P03952 20-638); experiment: cell-based or functional assay
# T7 sequence (P03952 20-638 limits assumed): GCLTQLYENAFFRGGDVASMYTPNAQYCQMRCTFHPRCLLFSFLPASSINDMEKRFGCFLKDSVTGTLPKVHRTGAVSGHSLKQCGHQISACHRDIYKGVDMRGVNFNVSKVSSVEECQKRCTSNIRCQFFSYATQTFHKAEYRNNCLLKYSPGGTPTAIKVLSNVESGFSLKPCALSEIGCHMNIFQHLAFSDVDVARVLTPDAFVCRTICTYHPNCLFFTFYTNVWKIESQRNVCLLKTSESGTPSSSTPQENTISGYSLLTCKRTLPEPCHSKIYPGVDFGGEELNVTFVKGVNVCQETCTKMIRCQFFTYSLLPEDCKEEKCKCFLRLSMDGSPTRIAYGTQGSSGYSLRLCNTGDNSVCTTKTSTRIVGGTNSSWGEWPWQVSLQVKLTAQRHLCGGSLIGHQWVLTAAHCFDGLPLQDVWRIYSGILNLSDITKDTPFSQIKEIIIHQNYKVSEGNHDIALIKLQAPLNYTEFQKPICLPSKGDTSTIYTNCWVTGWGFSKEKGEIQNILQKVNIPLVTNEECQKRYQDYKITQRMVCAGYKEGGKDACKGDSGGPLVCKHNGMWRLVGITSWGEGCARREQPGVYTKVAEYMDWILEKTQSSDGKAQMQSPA
# [11] = target: T8, human thrombin (IHT, from human plasma, 37 kDa) (human, UniProt P00734 328-622); experiment: cell-based or functional assay
# [12] = target: T9, human factor XIa (IHFXI, from human plasma, 160 kDa) (human, UniProt P03951 19-625); experiment: cell-based or functional assay
# T9 sequence (P03951 19-625 limits assumed): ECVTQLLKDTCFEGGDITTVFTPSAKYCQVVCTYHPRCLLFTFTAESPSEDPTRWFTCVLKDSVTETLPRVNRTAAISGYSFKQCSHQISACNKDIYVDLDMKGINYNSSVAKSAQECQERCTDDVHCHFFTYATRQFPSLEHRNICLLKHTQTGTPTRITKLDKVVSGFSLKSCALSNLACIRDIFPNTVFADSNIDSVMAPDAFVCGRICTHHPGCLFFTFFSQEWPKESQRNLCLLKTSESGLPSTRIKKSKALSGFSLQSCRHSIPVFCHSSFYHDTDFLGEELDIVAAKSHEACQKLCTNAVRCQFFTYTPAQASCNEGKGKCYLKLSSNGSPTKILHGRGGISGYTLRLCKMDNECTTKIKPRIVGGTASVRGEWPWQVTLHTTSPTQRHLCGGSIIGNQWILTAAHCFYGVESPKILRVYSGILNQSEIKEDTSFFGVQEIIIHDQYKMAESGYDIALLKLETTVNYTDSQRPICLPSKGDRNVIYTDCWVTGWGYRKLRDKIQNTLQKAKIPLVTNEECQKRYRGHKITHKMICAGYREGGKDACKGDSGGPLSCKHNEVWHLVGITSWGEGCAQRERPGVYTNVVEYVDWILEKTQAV
# [13] = target: T1, human urokinase-type plasminogen …; experiment: enzyme inhibition, Ki calculated from IC50 by the Cheng-Prusoff equation, pH 7.4, 25 °C
# [14] = target: T2, mouse uPA (MUPA-LMW, recombinantly …); experiment: as above
# [15] = target: T3, human tPA (HTPA-TC, recombinant, 70 kDa); experiment: as above
# [16] = target: T4, mouse tPA (MTPA, recombinantly produced …); experiment: as above
# [17] = target: T5, human plasmin (HPLM, from human plasma, …); experiment: as above
# [18] = target: T6, human trypsin (HTRYP, from human …); experiment: as above
# [19] = target: T7, human plasma kallikrein (IHPKA, from …); experiment: as above
# [20] = target: T8, human thrombin (IHT, from human plasma, …); experiment: as above
# [21] = target: T9, human factor XIa (IHFXI, from human …); experiment: as above
binder,measurement,setting,value
B1,Ki,[1],5.8 µM
same,fold weaker inhibition than the TBMB-cyclised UK18 peptide,[1],~200 fold
B2,fold better inhibition than of other serine proteases,[2],~1000 fold
same,fold of Ki against the Ki of human uPA,[3],~1400 fold
same,"IC50 (µM), residual protease activity, substrate Z-Gly-Gly-Arg-AMC",[4],0.047 µM
same,"IC50 (µM), residual protease activity, substrate Z-Gly-Gly-Arg-AMC",[5],65.5 µM
same,"IC50 (µM), residual protease activity, substrate Z-Gly-Gly-Arg-AMC",[6],87.5 µM
same,"IC50 (µM), residual protease activity, substrate Z-Gly-Gly-Arg-AMC",[7],52.5 µM
same,"IC50 (µM), residual protease activity, substrate H-D-Val-Leu-Lys-AMC",[8],57.5 µM
same,"IC50 (µM), residual protease activity, substrate Z-Gly-Gly-Arg-AMC",[9],54.5 µM
same,"IC50 (µM), residual protease activity, substrate Z-Phe-Arg-AMC",[10],47.5 µM
same,"IC50 (µM), residual protease activity, substrate Z-Gly-Gly-Arg-AMC",[11],36 µM
same,"IC50 (µM), residual protease activity, substrate Boc-Phe-Ser-Arg-AMC",[12],63 µM
same,Ki,[13],0.03 µM
same,Ki,[14],42 µM
same,Ki,[15],56.1 µM
same,Ki,[16],33.7 µM
same,Ki,[17],36.9 µM
same,Ki,[18],34.9 µM
same,Ki,[19],30.5 µM
same,Ki,[20],23.1 µM
same,Ki,[21],40.4 µM
